Consider one substance from paper PMC7531118, “Investigating host-microbiome interactions by droplet based microfluidics” (Microbiome, 2020).

In data set [1] the test system is CC(=O)N[C@H]1[C@H](Oc2ccc([N+](=O)[O-])cc2)O[C@H](CO)[C@@H](O)[C@@H]1O. The data set is described as follows: purified protein. The following applies: citrate buffer pH 5.5, 0.25 to 1.5 mM substrate, 30.0 °C.
For data set [2], the system named is CC(=O)N[C@H]1[C@H](Oc2ccc([N+](=O)[O-])cc2)O[C@H](CO)[C@H](O)[C@@H]1O. The data set is described as follows: purified protein. The settings on record: citrate buffer pH 5.5, 0.25 to 1.5 mM substrate, 30.0 °C.

Consider “Uhgb_GH123 (Phocaeicola plebeius DSM 17135)”, for which, in data set [1], the Km (usually the substrate concentration at which the rate is half of its maximum) was 3870 ± 270 µM; the kcat (usually the number of substrate molecules converted per active site and unit of time at saturation) is 0.33 ± 0.02 s⁻¹; the kcat/Km (as a rule, the turnover number divided by the Michaelis constant) came out at 85 M⁻¹ s⁻¹. Further, in data set [2], the Km came out at 1170 ± 100 µM, the kcat turned out to be 21.2 ± 1.18 s⁻¹ and the kcat/Km amounted to 18200 M⁻¹ s⁻¹.
